What is called koff is the rate constant with which the complex falls apart. Low readings indicate a long-lived complex, high ones a short-lived complex. By kon is commonly meant a measure of how fast the partners come together. A higher kon goes with fast association.

The record followed here is patent US20230235027A1.

The target in one experiment is A475V (SARS-CoV-2). Description: kinetic measurement, method not stated; table row A475V.
For the next experiment, the target named is E484K (SARS-CoV-2). The experiment is described as follows: kinetic measurement, method not stated; table row E484K.
The next experiment concerns the target F490L (SARS-CoV-2). The experiment is described as follows: kinetic measurement, method not stated; table row F490L.
In another experiment the target is K417N (SARS-CoV-2). The experiment is described as follows: kinetic measurement, method not stated; table row K417N.
In another experiment the target is L452R (SARS-CoV-2). Description: kinetic measurement, method not stated; table row L452R.
Another experiment deals with N439K (SARS-CoV-2). Description: kinetic measurement, method not stated; table row N439K.
Another experiment has as its target N501Y (SARS-CoV-2). Description: kinetic measurement, method not stated; table row N501Y.
The next experiment has as its target B.1.351 (Gamma). The experiment is described as follows: kinetic measurement, method not stated; table row B.1.351 (Gamma).

NIH-CoVnb-112 (VHH), sequence (VHH): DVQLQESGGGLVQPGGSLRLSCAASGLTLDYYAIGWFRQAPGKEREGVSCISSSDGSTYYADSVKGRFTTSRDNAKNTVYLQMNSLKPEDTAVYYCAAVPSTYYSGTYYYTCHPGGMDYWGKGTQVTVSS

As for NIH-CoVnb-112 (VHH), the koff with A475V (SARS-CoV-2) came out at 0.000209 s⁻¹; with E484K (SARS-CoV-2) it was 0.000304 s⁻¹; with F490L (SARS-CoV-2), 0.000926 s⁻¹; with K417N (SARS-CoV-2), 0.000157 s⁻¹; with L452R (SARS-CoV-2) it was 0.00127 s⁻¹; with N439K (SARS-CoV-2), 0.000302 s⁻¹. For the same substance, the results for the koff with N501Y (SARS-CoV-2) and with B.1.351 (Gamma) were 0.000428 s⁻¹ and 0.000705 s⁻¹, respectively. The kon with A475V (SARS-CoV-2) turned out to be 169000 M⁻¹ s⁻¹; with E484K (SARS-CoV-2), 256000 M⁻¹ s⁻¹; with F490L (SARS-CoV-2), 158000 M⁻¹ s⁻¹; with K417N (SARS-CoV-2) it was 120000 M⁻¹ s⁻¹; with L452R (SARS-CoV-2), 209000 M⁻¹ s⁻¹; in the experiment with N439K (SARS-CoV-2), 189000 M⁻¹ s⁻¹. Also, the kon in the experiment with N501Y (SARS-CoV-2) was determined as 153000 M⁻¹ s⁻¹; with B.1.351 (Gamma), 201000 M⁻¹ s⁻¹.
